The sequences below were run on Escherichia coli TOP10 (assay: shrunken log2 fold change of peptide-encoding DNA abundance (4.5 h post-induction vs induction); higher = less antimicrobial activity (less host growth inhibition)). Details: time post-induction: 4.5 h; library: site-saturation at positions 5, 18, 19, 20.
In the case of RRIRTRPPRLPRPRPRPVHWPRP, the “shrunken log2 fold change” value is reported as 0.842.
For RRIRFRPPRLPRPRPRPCCIPRP, the “shrunken log2 fold change” value was -0.313.
In the case of RRIRFRPPRLPRPRPRPSHHPRP, the “shrunken log2 fold change” value is reported as -0.534.
In the case of RRIRMRPPRLPRPRPRPTDFPRP, the “shrunken log2 fold change” value is reported as -0.0135.
In the case of RRIRDRPPRLPRPRPRPCYVPRP, the “shrunken log2 fold change” value is reported as -0.116.
RRIRERPPRLPRPRPRPVDEPRP was tested, and the “shrunken log2 fold change” value was -0.56.
In the case of RRIRKRPPRLPRPRPRPLRAPRP, the “shrunken log2 fold change” value is reported as 1.23.
RRIRFRPPRLPRPRPRPCAAPRP was tested, and the “shrunken log2 fold change” value was 0.35.
RRIRKRPPRLPRPRPRPWREPRP was tested, and the “shrunken log2 fold change” value was 0.184.
With RRIRNRPPRLPRPRPRPKMNPRP the “shrunken log2 fold change” value was -0.381.
With RRIRHRPPRLPRPRPRPDMKPRP the “shrunken log2 fold change” value was -0.0644.
RRIRWRPPRLPRPRPRPGHVPRP was tested, and the “shrunken log2 fold change” value was 0.153.
With RRIRMRPPRLPRPRPRPQNHPRP the “shrunken log2 fold change” value was -0.337.
With RRIRSRPPRLPRPRPRPPERPRP the “shrunken log2 fold change” value was 0.0652.
With RRIRHRPPRLPRPRPRPHTDPRP the “shrunken log2 fold change” value was -0.212.
RRIRFRPPRLPRPRPRPLKVPRP was tested, and the “shrunken log2 fold change” value was -0.112.
With RRIRWRPPRLPRPRPRPCHDPRP the “shrunken log2 fold change” value was 0.0415.
For RRIRARPPRLPRPRPRPKVWPRP, the “shrunken log2 fold change” value was 0.766.
With RRIRARPPRLPRPRPRPWLPPRP the “shrunken log2 fold change” value was 0.197.
RRIRIRPPRLPRPRPRPHDSPRP was tested, and the “shrunken log2 fold change” value was -0.398.
With RRIRSRPPRLPRPRPRPMMFPRP the “shrunken log2 fold change” value was 0.0732.
RRIRTRPPRLPRPRPRPTAKPRP was tested, and the “shrunken log2 fold change” value was -0.143.
RRIRQRPPRLPRPRPRPQAEPRP was tested, and the “shrunken log2 fold change” value was 4.1.
RRIRDRPPRLPRPRPRPDKEPRP was tested, and the “shrunken log2 fold change” value was -0.0124.
With RRIRQRPPRLPRPRPRPDFVPRP the “shrunken log2 fold change” value was 0.0112.
In the case of RRIRFRPPRLPRPRPRPFDKPRP, the “shrunken log2 fold change” value is reported as 0.00679.
In the case of RRIRSRPPRLPRPRPRPHPFPRP, the “shrunken log2 fold change” value is reported as -0.25.
With RRIRDRPPRLPRPRPRPQAVPRP the “shrunken log2 fold change” value was 0.164.
In the case of RRIRVRPPRLPRPRPRPGNEPRP, the “shrunken log2 fold change” value is reported as -0.203.
In the case of RRIRGRPPRLPRPRPRPTDRPRP, the “shrunken log2 fold change” value is reported as 0.0231.
With RRIRPRPPRLPRPRPRPMPWPRP the “shrunken log2 fold change” value was 0.215.
RRIRPRPPRLPRPRPRPSDVPRP was tested, and the “shrunken log2 fold change” value was -0.249.
RRIRYRPPRLPRPRPRPRLEPRP was tested, and the “shrunken log2 fold change” value was -0.0441.
For RRIRDRPPRLPRPRPRPAPQPRP, the “shrunken log2 fold change” value was 0.983.
For RRIRNRPPRLPRPRPRPKNFPRP, the “shrunken log2 fold change” value was 0.0662.
RRIRCRPPRLPRPRPRPIQCPRP was tested, and the “shrunken log2 fold change” value was -0.14.
RRIRARPPRLPRPRPRPLSEPRP was tested, and the “shrunken log2 fold change” value was 0.172.
For RRIRKRPPRLPRPRPRPNPGPRP, the “shrunken log2 fold change” value was 0.155.
With RRIRARPPRLPRPRPRPHHQPRP the “shrunken log2 fold change” value was -0.0146.
For RRIRMRPPRLPRPRPRPDDAPRP, the “shrunken log2 fold change” value was 0.225.
In the case of RRIRQRPPRLPRPRPRPHSSPRP, the “shrunken log2 fold change” value is reported as -0.271.
For RRIRPRPPRLPRPRPRPWREPRP, the “shrunken log2 fold change” value was -0.00316.
With RRIRTRPPRLPRPRPRPVCLPRP the “shrunken log2 fold change” value was -0.398.
For RRIRDRPPRLPRPRPRPGEGPRP, the “shrunken log2 fold change” value was 1.41.
RRIRARPPRLPRPRPRPKKQPRP was tested, and the “shrunken log2 fold change” value was 0.0491.
In the case of RRIRHRPPRLPRPRPRPAHAPRP, the “shrunken log2 fold change” value is reported as -0.0771.
With RRIRQRPPRLPRPRPRPNYFPRP the “shrunken log2 fold change” value was -0.149.
With RRIRWRPPRLPRPRPRPDHWPRP the “shrunken log2 fold change” value was 0.109.
In the case of RRIRQRPPRLPRPRPRPGCLPRP, the “shrunken log2 fold change” value is reported as 0.129.
With RRIRWRPPRLPRPRPRPPIQPRP the “shrunken log2 fold change” value was 0.277.
With RRIRTRPPRLPRPRPRPFWEPRP the “shrunken log2 fold change” value was 1.78.
RRIRQRPPRLPRPRPRPNQQPRP was tested, and the “shrunken log2 fold change” value was -0.0802.
With RRIRPRPPRLPRPRPRPHGDPRP the “shrunken log2 fold change” value was -0.0431.
With RRIRLRPPRLPRPRPRPSFFPRP the “shrunken log2 fold change” value was -0.207.
RRIRVRPPRLPRPRPRPCHTPRP was tested, and the “shrunken log2 fold change” value was -0.0202.
For RRIRRRPPRLPRPRPRPHDYPRP, the “shrunken log2 fold change” value was -0.0628.
With RRIRCRPPRLPRPRPRPRDKPRP the “shrunken log2 fold change” value was 0.0174.
For RRIRFRPPRLPRPRPRPLALPRP, the “shrunken log2 fold change” value was -0.0762.
For RRIRFRPPRLPRPRPRPWHLPRP, the “shrunken log2 fold change” value was -0.0307.
In the case of RRIRDRPPRLPRPRPRPNWAPRP, the “shrunken log2 fold change” value is reported as 0.00788.
For RRIRGRPPRLPRPRPRPPPYPRP, the “shrunken log2 fold change” value was 0.611.
RRIRSRPPRLPRPRPRPFEIPRP was tested, and the “shrunken log2 fold change” value was 0.0385.
With RRIRMRPPRLPRPRPRPRKYPRP the “shrunken log2 fold change” value was 0.276.
In the case of RRIRPRPPRLPRPRPRPRSLPRP, the “shrunken log2 fold change” value is reported as 0.14.
With RRIRWRPPRLPRPRPRPWDFPRP the “shrunken log2 fold change” value was -0.2.
For RRIRIRPPRLPRPRPRPQNEPRP, the “shrunken log2 fold change” value was -0.226.
In the case of RRIRPRPPRLPRPRPRPFGGPRP, the “shrunken log2 fold change” value is reported as 0.0321.
In the case of RRIRIRPPRLPRPRPRPYTNPRP, the “shrunken log2 fold change” value is reported as -0.957.
With RRIRMRPPRLPRPRPRPGDCPRP the “shrunken log2 fold change” value was 0.548.
With RRIRFRPPRLPRPRPRPHGMPRP the “shrunken log2 fold change” value was -0.00197.
RRIRRRPPRLPRPRPRPHNFPRP was tested, and the “shrunken log2 fold change” value was -0.0578.
With RRIRERPPRLPRPRPRPLKVPRP the “shrunken log2 fold change” value was -0.0726.
In the case of RRIRPRPPRLPRPRPRPFWFPRP, the “shrunken log2 fold change” value is reported as -0.0717.
For RRIRRRPPRLPRPRPRPYEKPRP, the “shrunken log2 fold change” value was 0.0137.
With RRIRNRPPRLPRPRPRPCADPRP the “shrunken log2 fold change” value was 1.47.
RRIRKRPPRLPRPRPRPVTDPRP was tested, and the “shrunken log2 fold change” value was -0.0127.
With RRIRDRPPRLPRPRPRPQLSPRP the “shrunken log2 fold change” value was 0.103.
In the case of RRIRIRPPRLPRPRPRPELFPRP, the “shrunken log2 fold change” value is reported as 0.23.
In the case of RRIRHRPPRLPRPRPRPIQHPRP, the “shrunken log2 fold change” value is reported as -0.237.
RRIRVRPPRLPRPRPRPWNIPRP was tested, and the “shrunken log2 fold change” value was -0.582.
For RRIRLRPPRLPRPRPRPRSGPRP, the “shrunken log2 fold change” value was 0.122.
With RRIRSRPPRLPRPRPRPHGNPRP the “shrunken log2 fold change” value was -0.00459.
RRIRERPPRLPRPRPRPNLDPRP was tested, and the “shrunken log2 fold change” value was -0.289.
For RRIRWRPPRLPRPRPRPWPAPRP, the “shrunken log2 fold change” value was 0.62.
With RRIRSRPPRLPRPRPRPFMFPRP the “shrunken log2 fold change” value was -0.156.
In the case of RRIRMRPPRLPRPRPRPEPVPRP, the “shrunken log2 fold change” value is reported as 1.01.
In the case of RRIRMRPPRLPRPRPRPSCKPRP, the “shrunken log2 fold change” value is reported as 0.0347.
With RRIRRRPPRLPRPRPRPQSDPRP the “shrunken log2 fold change” value was 0.244.
For RRIRPRPPRLPRPRPRPLTNPRP, the “shrunken log2 fold change” value was -0.521.
RRIRDRPPRLPRPRPRPSYCPRP was tested, and the “shrunken log2 fold change” value was -0.046.
For RRIRWRPPRLPRPRPRPETRPRP, the “shrunken log2 fold change” value was 1.32.
RRIRLRPPRLPRPRPRPCKTPRP was tested, and the “shrunken log2 fold change” value was 0.0231.
RRIRWRPPRLPRPRPRPPGVPRP was tested, and the “shrunken log2 fold change” value was 0.525.
RRIRERPPRLPRPRPRPPKKPRP was tested, and the “shrunken log2 fold change” value was 0.0812.
RRIRERPPRLPRPRPRPHPGPRP was tested, and the “shrunken log2 fold change” value was 0.033.
RRIRERPPRLPRPRPRPEYSPRP was tested, and the “shrunken log2 fold change” value was -0.422.
For RRIRRRPPRLPRPRPRPVCEPRP, the “shrunken log2 fold change” value was 0.935.
For RRIRIRPPRLPRPRPRPWRGPRP, the “shrunken log2 fold change” value was -0.129.
For RRIRVRPPRLPRPRPRPGFDPRP, the “shrunken log2 fold change” value was 0.0552.
With RRIRKRPPRLPRPRPRPPWNPRP the “shrunken log2 fold change” value was 0.136.
With RRIRYRPPRLPRPRPRPSAEPRP the “shrunken log2 fold change” value was -0.0651.
RRIRCRPPRLPRPRPRPVEAPRP was tested, and the “shrunken log2 fold change” value was 0.338.
With RRIRRRPPRLPRPRPRPKSKPRP the “shrunken log2 fold change” value was 0.165.
For RRIRWRPPRLPRPRPRPSDNPRP, the “shrunken log2 fold change” value was -0.14.
RRIRDRPPRLPRPRPRPACPPRP was tested, and the “shrunken log2 fold change” value was 0.962.
With RRIRTRPPRLPRPRPRPTFGPRP the “shrunken log2 fold change” value was 0.0406.
RRIRDRPPRLPRPRPRPMPKPRP was tested, and the “shrunken log2 fold change” value was -0.0503.
With RRIRCRPPRLPRPRPRPDVVPRP the “shrunken log2 fold change” value was -0.00174.
With RRIRYRPPRLPRPRPRPCSVPRP the “shrunken log2 fold change” value was -1.08.
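Note: peptides expressed intracellularly from a pBAD plasmid library in pooled LB shake-flask culture, induced with 0.3% L-arabinose, DNA abundance read by NGS, three biological replicates, DESeq2 with apeglm shrinkage.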
